Literature values in publication PMC7214499.
pKd: −log10 of the molar value.

Molecular target: IFNAR2 ECD (Homo sapiens) (UniProt P48551)
Sequence of UniProt P48551 (P48551 27-243): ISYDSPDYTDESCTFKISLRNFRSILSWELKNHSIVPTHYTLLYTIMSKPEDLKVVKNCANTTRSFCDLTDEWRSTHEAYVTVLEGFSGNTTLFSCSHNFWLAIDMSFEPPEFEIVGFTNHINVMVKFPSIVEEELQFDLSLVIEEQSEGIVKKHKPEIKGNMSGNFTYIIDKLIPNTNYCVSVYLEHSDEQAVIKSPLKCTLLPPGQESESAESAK

Substance: IFNα2 (from UniProt P01563)
- pKd: 8.00
